# B1: Serine/threonine-protein kinase/endoribonuclease IRE1 (Saccharomyces cerevisiae), P32361 (parent)
# chain: MRLLRRNMLVLTLLVCVFSSIISCSIPLSSRTSRRQIVEDEVASTKKLNFNYGVDKNINSPIPAPRTTEGLPNMKLSSYPTPNLLNTADNRRANKKGRRAANSISVPYLENRSLNELSLSDILIAADVEGGLHAVDRRNGHIIWSIEPENFQPLIEIQEPSRLETYETLIIEPFGDGNIYYFNAHQGLQKLPLSIRQLVSTSPLHLKTNIVVNDSGKIVEDEKVYTGSMRTIMYTINMLNGEIISAFGPGSKNGYFGSQSVDCSPEEKIKLQECENMIVIGKTIFELGIHSYDGASYNVTYSTWQQNVLDVPLALQNTFSKDGMCIAPFRDKSLLASDLDFRIARWVSPTFPGIIVGLFDVFNDLRTNENILVPHPFNPGDHESISSNKVYLDQTSNLSWFALSSQNFPSLVESAPISRYASSDRWRVSSIFEDETLFKNAIMGVHQIYNNEYDHLYENYEKTNSLDTTHKYPPLMIDSSVDTTDLHQNNEMNSLKEYMSPEDLEAYRKKIHEQISRELDEKNQNSLLLKFGSLVYRIIETGVFLLLFLIFCAILQRFKILPPLYVLLSKIGFMPEKEIPIVESKSLNCPSSSENVTKPFDMKSGKQVVFEGAVNDGSLKSEKDNDDADEDDEKSLDLTTEKKKRKRGSRGGKKGRKSRIANIPNFEQSLKNLVVSEKILGYGSSGTVVFQGSFQGRPVAVKRMLIDFCDIALMEIKLLTESDDHPNVIRYYCSETTDRFLYIALELCNLNLQDLVESKNVSDENLKLQKEYNPISLLRQIASGVAHLHSLKIIHRDLKPQNILVSTSSRFTADQQTGAENLRILISDFGLCKKLDSGQSSFRTNLNNPSGTSGWRAPELLEESNNLQCQVETEHSSSRHTVVSSDSFYDPFTKRRLTRSIDIFSMGCVFYYILSKGKHPFGDKYSRESNIIRGIFSLDEMKCLHDRSLIAEATDLISQMIDHDPLKRPTAMKVLRHPLFWPKSKKLEFLLKVSDRLEIENRDPPSALLMKFDAGSDFVIPSGDWTVKFDKTFMDNLERYRKYHSSKLMDLLRALRNKYHHFMDLPEDIAELMGPVPDGFYDYFTKRFPNLLIGVYMIVKENLSDDQILREFLYS
# partner: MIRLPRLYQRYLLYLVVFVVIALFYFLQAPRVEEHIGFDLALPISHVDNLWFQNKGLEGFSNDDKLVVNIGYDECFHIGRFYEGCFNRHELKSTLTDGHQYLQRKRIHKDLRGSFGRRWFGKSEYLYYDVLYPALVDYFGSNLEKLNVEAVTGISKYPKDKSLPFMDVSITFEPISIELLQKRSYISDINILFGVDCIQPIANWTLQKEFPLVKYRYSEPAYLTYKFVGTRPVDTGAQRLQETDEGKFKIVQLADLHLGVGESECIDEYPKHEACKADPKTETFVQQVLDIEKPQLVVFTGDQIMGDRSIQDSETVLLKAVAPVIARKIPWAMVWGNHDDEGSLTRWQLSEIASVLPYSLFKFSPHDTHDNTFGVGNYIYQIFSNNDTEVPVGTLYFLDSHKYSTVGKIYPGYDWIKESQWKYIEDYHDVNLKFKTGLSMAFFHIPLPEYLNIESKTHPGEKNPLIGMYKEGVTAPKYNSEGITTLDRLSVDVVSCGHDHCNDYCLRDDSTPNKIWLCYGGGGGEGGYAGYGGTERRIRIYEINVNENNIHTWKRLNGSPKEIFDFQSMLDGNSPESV
# Variants of: B1
# Settings: with dcr2_yeast DCR2, Q05924
row,Variant,effect of a mutation on the interaction
1,S840A,increasing interaction
2,S841A,increasing interaction

# — IntAct's records for PubMed 16990850
